Drawing on patent US20120107323A1, “KINASE PROTEIN BINDING INHIBITORS” (University of Florida, priority 2009, published 2012), this text covers percentage of interaction for one substance.

In the test the target is IGF-1R of the transfected cells of Example 10 (confocal microscopy) (Homo sapiens (Human)) (UniProt P08069). Description: confocal microscopy, colocalization in cells transfected in the presence of the small molecule NSC 250435.

Regarding GFP-fused FAK-NT2 (a.a. 127-243), the percentage of interaction stood at 30%.
